From US20180244762A1 (KODIAK SCIENCES, published 2018)

B1: rhVEGFA-165 (ligand, human, UniProt P15692-4 27-191, looked up)
chain: APMAEGGGQNHHEVVKFMDVYQRSYCHPIETLVDIFQEYPDEIEYIFKPSCVPLMRCGGCCNDEGLECVPTEESNITMQIMRIKPHQGQHIGEMSFLQHNKCECRPKKDRARQENPCGPCSERRKHLFVQDPQTCKCSCKNTDSRCKARQLELNERTCRCDKPRR
modifications: biotinylated in Example 34
B2: aflibercept (Fc fusion, UniProt P17948 129-230, looked up, not shown: a dimerising Fc or GST)
chain: SDTGRPFVEMYSEIPEIIHMTEGRELVIPCRVTSPNITVTLKKFPLDTLIPDGKRIIWDSRKGFIISNATYKEIGLLTCEATVNGHLYKTNYLTHRQTNTIIDVVLSPSHGIELSVGEKLVLNCTARTELNVGIDFNWEYPSSKHQHKKLVNRDLKTQSGSEMKKFLSTLTIDGVTRSDQGLYTCAASSGLMTKKNSTFVRVHEK

Assays:
aflibercept = molecular target: B2; assay: optical biosensor (Proteon XPR36 / Biacore 2000), binder amine-coupled, rhVEGFA-165 injected, 25 C
Protocol: (§1) Binding studies were performed at 25° C. and 37° C. using BioRad Proteon XPR36 and Biacore 2000 optical biosensors equipped with GLM (Proteon) and CM4 (Biacore) sensor chips and equilibrated with running buffer (10 m/M HEPES, 150 mM NaCl, 0.005% Teen-20, 0.2 mg/ml BSA).
Binding of the coupled proteins to the ligands was determined by standard methodology.

rhVEGFA-165 = molecular target: B1; assay: cell-based or functional assay
[1] = molecular target: T1, recombinant human PDGF-BB (human, UniProt P01127 82-190); assay: optical biosensor (Proteon XPR36 / Biacore 2000), binder amine-coupled, rhPDGF-BB injected, 25 C
T1 construct: also called rhPDGF-BB; rhPDGFBB
T1 sequence (P01127 82-190): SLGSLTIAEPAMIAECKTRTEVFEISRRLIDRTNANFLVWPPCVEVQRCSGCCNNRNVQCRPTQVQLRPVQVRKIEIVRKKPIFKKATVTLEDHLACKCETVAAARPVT
Protocol: as §1

[2] = molecular target: T1, recombinant human PDGF-BB; assay: cell-based or functional assay
[3] = molecular target: T1, recombinant human PDGF-BB; assay: competitive ELISA: binder preincubated with 0.2 nM rhPDGF-BB, competitor immobilized PDGFR/Fc
[4] = molecular target: T1, recombinant human PDGF-BB; assay: SPR (Biacore T200, 25 C), binder captured by anti-human IgG, PDGF-BB as analyte, average +/- SD of the runs
Protocol: (§2) Each PDGF/VEGF variant was captured to a level of approximately 150 RUs. The running and sample buffer for the PDGF analysis was HBS-EP+300mM NaCl (10 mM 4-(2-hydroxyethyl)-1-piperazineethanesulfonic acid (HEPES) pH 7.4, 300 mM NaCl, 3mM ethylenediaminetetraacetic acid (EDTA), 0.05% (v/v) Tween-20). […] The surface was then regenerated with a 30 second pulse of 3M MgCl₂, a 30 second pulse of an ionic regeneration buffer (0.46M KSCN, 1.83 M MgCl2, 0.92 M urea, and 1.83 M guanidine-HCI pH7.4, Andersson et al., Analytical Chemistry, 1999) and then equilibrated with a 30 second pulse of HBS-EP+ 300 mM NaCl running buffer.
(§3) All SPR assays were performed at 25° C. with a data collection rate of1Hz using a Biacore T200 instrument (GE Healthcare). The resulting PDGP and VEGP sensorgrams were double referenced using both a control surface and buffer injections. The rate constants were determined by fitting the data to a 1:1 Langmuir model with Biacore T200 evaluation software v2.0 and the equation […].

[5] = molecular target: T1, recombinant human PDGF-BB; assay: SPR (Biacore T200, 25 C), binder captured by anti-human IgG, PDGF-BB as analyte, run B
Protocol: as §2, §3

[6] = molecular target: T1, recombinant human PDGF-BB; assay: SPR (Biacore T200, 25 C), binder captured by anti-human IgG, PDGF-BB as analyte, run A
Protocol: as §2, §3

[7] = molecular target: T1, recombinant human PDGF-BB; assay: SPR (Biacore T200, 25 C), binder captured by anti-human IgG, PDGF-BB as analyte, run C
Protocol: as §2, §3

Binder | Kd (aflibercept) [pM] | Inhibition of VEGF induced proliferation of HRMVECs, IC50 (rhVEGFA-165) [pM] | Kd [1] [pM] | Inhibition of PDGF induced proliferation of HPVPs, IC50 [2] [pM] | IC50 [3] [pM] | Kd [4] [pM] | Kd [5] [pM] | koff [5] [s⁻¹] | kon [5] [M⁻¹ s⁻¹] | t½ [5] [h] | Kd [6] [pM] | koff [6] [s⁻¹] | kon [6] [M⁻¹ s⁻¹] | t½ [6] [h] | Kd [7] [pM] | koff [7] [s⁻¹] | kon [7] [M⁻¹ s⁻¹] | t½ [7] [h]
B1 | 1.56 |  |  |  |  |  |  |  |  |  |  |  |  |  |  |  |  | 
B2 |  | 550 |  |  |  |  |  |  |  |  |  |  |  |  |  |  |  | 
TAF443 (PDGFRβ-GS10-anti-VEGF-A heavy chain (L443C)/anti-VEGF-A light chain) (other, also called OG1321; TAF-443C) heavy: LVVTPPGPELVLNVSSTFVLTCSGSAPVVWERMSQEPPQEMAKAQDGTFSSVLTLTNLTGLDTGEYFCTHNDSRGLETDERKRLYIFVPDPTVGFLPNDAEELFIFLTEITEITIPCRVTDPQLVVTLHEKKGDVALPVPYDHQRGFSGIFEDRSYICKTTIGDREVDSDAYYVYRLQVSSINVSVNAVQTVVRQGENITLMCIVIGNEVVNFEWTYPRKESGRLVEPVTDFLLDMPYHIRSILHIPSAELEDSGTYTCNVTESVNDHQDEKAINITVVESGGGGGSGGGGSEVQLVESGGGLVQPGGSLRLSCAASGYDFTHYGMNWVRQAPGKGLEWVGWINTYTGEPTYAADFKRRFTFSLDTSKSTAYLQMNSLRAEDTAVYYCAKYPYYYGTSHWYFDVWGQGTLVTVSSASTKGPSVFPLAPSSKSTSGGTAALGCLVKDYFPEPVTVSWNSGALTSGVHTFPAVLQSSGLYSLSSVVTVPSSSLGTQTYICNVNHKPSNTKVDKKVEPKSCDKTHTCPPCPAPEAAGAPSVFLFPPKPKDTLMISRTPEVTCVVVDVSHEDPEVKFNWYVDGVEVHNAKTKPREEQYNSTYRVVSVLTVLHQDWLNGKEYKCKVSNKALPAPIEKTISKAKGQPREPQVYTLPPSREEMTKNQVSLTCLVKGFYPSDIAVEWESNGQPENNYKTTPPVLDSDGSFFLYSKLTVDKSRWQQGNVFSCSVMHEALHNHYTQKSLSCSPGK light: not shown |  |  | 14 | 5000 | 46 | 1.55 | 1.56 | 8.76e-05 | 5.62e+07 | 2.2 | 1.54 | 4.96e-05 | 3.22e+07 | 3.89 |  |  |  | 
TAF443-6A250K (other, polymer conjugate, label 6A250K; polymer and attachment site not described for this conjugate, also called R3643-6A) heavy: LVVTPPGPELVLNVSSTFVLTCSGSAPVVWERMSQEPPQEMAKAQDGTFSSVLTLTNLTGLDTGEYFCTHNDSRGLETDERKRLYIFVPDPTVGFLPNDAEELFIFLTEITEITIPCRVTDPQLVVTLHEKKGDVALPVPYDHQRGFSGIFEDRSYICKTTIGDREVDSDAYYVYRLQVSSINVSVNAVQTVVRQGENITLMCIVIGNEVVNFEWTYPRKESGRLVEPVTDFLLDMPYHIRSILHIPSAELEDSGTYTCNVTESVNDHQDEKAINITVVESGGGGGSGGGGSEVQLVESGGGLVQPGGSLRLSCAASGYDFTHYGMNWVRQAPGKGLEWVGWINTYTGEPTYAADFKRRFTFSLDTSKSTAYLQMNSLRAEDTAVYYCAKYPYYYGTSHWYFDVWGQGTLVTVSSASTKGPSVFPLAPSSKSTSGGTAALGCLVKDYFPEPVTVSWNSGALTSGVHTFPAVLQSSGLYSLSSVVTVPSSSLGTQTYICNVNHKPSNTKVDKKVEPKSCDKTHTCPPCPAPEAAGAPSVFLFPPKPKDTLMISRTPEVTCVVVDVSHEDPEVKFNWYVDGVEVHNAKTKPREEQYNSTYRVVSVLTVLHQDWLNGKEYKCKVSNKALPAPIEKTISKAKGQPREPQVYTLPPSREEMTKNQVSLTCLVKGFYPSDIAVEWESNGQPENNYKTTPPVLDSDGSFFLYSKLTVDKSRWQQGNVFSCSVMHEALHNHYTQKSLSCSPGK light: not shown |  |  |  |  |  | 1.3 | 1.04 | 5.85e-05 | 5.62e+07 | 3.29 | 1.25 | 9.46e-05 | 7.6e+07 | 2.03 | 1.47 | 5.13e-05 | 3.48e+07 | 3.76
TAF (PDGFRβ-GS10-anti-VEGF-A heavy chain/anti-VEGF-A light chain) (other, Glycosylated PDGFR segment. The molecule is a dimer of two fusion heavy chains and two light chains., PDGFR-beta trap fused to the N-terminus of an anti-VEGF-A IgG1 heavy chain; also called TAF-WT; TAFwt) heavy: LVVTPPGPELVLNVSSTFVLTCSGSAPVVWERMSQEPPQEMAKAQDGTFSSVLTLTNLTGLDTGEYFCTHNDSRGLETDERKRLYIFVPDPTVGFLPNDAEELFIFLTEITEITIPCRVTDPQLVVTLHEKKGDVALPVPYDHQRGFSGIFEDRSYICKTTIGDREVDSDAYYVYRLQVSSINVSVNAVQTVVRQGENITLMCIVIGNEVVNFEWTYPRKESGRLVEPVTDFLLDMPYHIRSILHIPSAELEDSGTYTCNVTESVNDHQDEKAINITVVESGGGGGSGGGGSEVQLVESGGGLVQPGGSLRLSCAASGYDFTHYGMNWVRQAPGKGLEWVGWINTYTGEPTYAADFKRRFTFSLDTSKSTAYLQMNSLRAEDTAVYYCAKYPYYYGTSHWYFDVWGQGTLVTVSSASTKGPSVFPLAPSSKSTSGGTAALGCLVKDYFPEPVTVSWNSGALTSGVHTFPAVLQSSGLYSLSSVVTVPSSSLGTQTYICNVNHKPSNTKVDKKVEPKSCDKTHTCPPCPAPEAAGAPSVFLFPPKPKDTLMISRTPEVTCVVVDVSHEDPEVKFNWYVDGVEVHNAKTKPREEQYNSTYRVVSVLTVLHQDWLNGKEYKCKVSNKALPAPIEKTISKAKGQPREPQVYTLPPSREEMTKNQVSLTCLVKGFYPSDIAVEWESNGQPENNYKTTPPVLDSDGSFFLYSKLTVDKSRWQQGNVFSCSVMHEALHNHYTQKSLSLSPGK light: not shown |  |  |  |  |  | 1.1 | 1.15 | 9.19e-05 | 8.01e+07 | 2.09 | 1.01 | 8.01e-05 | 7.97e+07 | 2.4 | 1.19 | 0.000103 | 8.65e+07 | 1.87
TAF347 (PDGFRβ-GS10-anti-VEGF-A heavy chain (Q347C)/anti-VEGF-A light chain) (other, Same as TAF except for Q347C (EU numbering); also called TAF-347C) heavy: LVVTPPGPELVLNVSSTFVLTCSGSAPVVWERMSQEPPQEMAKAQDGTFSSVLTLTNLTGLDTGEYFCTHNDSRGLETDERKRLYIFVPDPTVGFLPNDAEELFIFLTEITEITIPCRVTDPQLVVTLHEKKGDVALPVPYDHQRGFSGIFEDRSYICKTTIGDREVDSDAYYVYRLQVSSINVSVNAVQTVVRQGENITLMCIVIGNEVVNFEWTYPRKESGRLVEPVTDFLLDMPYHIRSILHIPSAELEDSGTYTCNVTESVNDHQDEKAINITVVESGGGGGSGGGGSEVQLVESGGGLVQPGGSLRLSCAASGYDFTHYGMNWVRQAPGKGLEWVGWINTYTGEPTYAADFKRRFTFSLDTSKSTAYLQMNSLRAEDTAVYYCAKYPYYYGTSHWYFDVWGQGTLVTVSSASTKGPSVFPLAPSSKSTSGGTAALGCLVKDYFPEPVTVSWNSGALTSGVHTFPAVLQSSGLYSLSSVVTVPSSSLGTQTYICNVNHKPSNTKVDKKVEPKSCDKTHTCPPCPAPEAAGAPSVFLFPPKPKDTLMISRTPEVTCVVVDVSHEDPEVKFNWYVDGVEVHNAKTKPREEQYNSTYRVVSVLTVLHQDWLNGKEYKCKVSNKALPAPIEKTISKAKGQPREPCVYTLPPSREEMTKNQVSLTCLVKGFYPSDIAVEWESNGQPENNYKTTPPVLDSDGSFFLYSKLTVDKSRWQQGNVFSCSVMHEALHNHYTQKSLSLSPGK light: not shown |  |  |  |  |  | 1.7 | 1.35 | 7.87e-05 | 5.82e+07 | 2.45 | 2.03 | 8.41e-05 | 4.15e+07 | 2.29 |  |  |  | 
